Experimental findings from patent US20230265179A1 (TWIST BIOSCIENCE, published 2023) are described below.

B1: IL1RL2-51 (VHH)
VHH: EVQLVESGGGLVQPGGSLRLSCAASGFTFSPSWMGWFRQAPGKEREWVSSIDYSAEDTYYADSVKGRFTISADNSKNTAYLQMNSLKPEDTAVYYCAAFDGYSGSDWGQGTLVTVSS
B2: IL1RL2-167 (antibody, V domains shown)
VH: EVQLLESGGGLVQPGGSLRLSCAASGFTFSNYGVSWVRQAPGKGLEWVSGITRSGSTNYRDSVKGRFTISRDNSKNTLYLQMNSLRAEDTAVYYCAKGRRIFDYWGQGTLVTVSS
VL: DIQMTQSPSSLSASVGDRVTITCSGDKLGHTYTSWYQQKPGKAPKLLIYGKKNRPSGVPSRFSGSGSGTDFTLTISSLQPEDFATYYCQQSYSTPGITFGQGTKVEIK
notes: IgG2
B3: IL1RL2-50 (VHH)
VHH: EVQLVESGGGLVQPGGSLRLSCAASGSIFSIDAMGWFRQAPGKERESVAIIKTDGSTYYADSVKGRFTISADNSKNTAYLQMNSLKPEDTAVYYCAHRLGYCSGGSCYWPNYFDYWGQGTLVTVSS
notes: VHH-Fc based on IgG2 Fc
B4: IL1RL2-156 (antibody, V domains shown)
VH: EVQLLESGGGLVQPGGSLRLSCAASGFTFSSYWNHWVRQAPGKGLEWVSTIGPSGTSTYYADSVKGRFTISRDNSKNTLYLQMNSLRAEDTAVYYCAKSTPNIPLAYWGQGTLVTVSS
VL: DIQMTQSPSSLSASVGDRVTITCRASQSIRRYLNWYQQKPGKAPKLLIYDASSSQSGVPSRFSGSGSGTDFTLTISSLQPEDFATYYCQQSTILPLTFGQGTKVEIK
notes: IgG2
B5: IL1RL2-158 (antibody, V domains shown)
VH: EVQLLESGGGLVQPGGSLRLSCAASGFTFSSYFMSWVRQAPGKGLEWVSEISPSGSETYYADSVKGRFTISRDNSKNTLYLQMNSLRAEDTAVYYCARAYSSGWSLPFDYWGQGTLVTVSS
VL: DIQMTQSPSSLSASVGDRVTITCRASQGVRTSLAWYQQKPGKAPKLLIYATSTLQSGVPSRFSGSGSGTDFTLTISSLQPEDFATYYCAQGLRKPKTFGQGTKVEIK
notes: IgG2
B6: IL1RL2-40 (VHH)
VHH: EVQLVESGGGLVQPGGSLRLSCAASGFTFSTYTMGWFRQAPGKEREFVAGIAWNGASGTLTSYADSVKGRFTISADNSKNTAYLQMNSLKPEDTAVYYCASAGRWGQGTLVTVSS
notes: VHH-Fc based on IgG2 Fc
B7: IL1RL2-32 (VHH)
VHH: EVQLVESGGGLVQPGGSLRLSCAASGNDFSIKAMGWFRQAPGKEREFVADIYTSTTTNYTNYADSVKGRFTISADNSKNTAYLQMNSLKPEDTAVYYCAAIAHEEGVYRWDWGQGTLVTVSS
notes: VHH-Fc based on IgG2 Fc
B8: IL1RL2-47 (VHH)
VHH: EVQLVESGGGLVQPGGSLRLSCAASGGTFSNYAMGWFRQAPGKEREFVAAIGGVTDYADSVKGRFTISADNSKNTAYLQMNSLKPEDTAVYYCAAFAYEEGVYRWDWGQGTLVTVSS
notes: VHH-Fc based on IgG2 Fc
B9: IL1RL2-42 (VHH)
VHH: EVQLVESGGGLVQPGGSLRLSCAASGRTFSSYDMGWFRQAPGKEREFVAAIVWIGGRTYYADSVKGRFTISADNSKNTAYLQMNSLKPEDTAVYYCADVNGDWGQGTLVTVSS
notes: VHH-Fc based on IgG2 Fc
B10: IL1RL2-56 (VHH)
VHH: EVQLVESGGGLVQPGGSLRLSCAASGRTFSTYDMGWFRQAPGKEREFVAAISWGGGLTVYADSVKGRFTISADNSKNTAYLQMNSLKPEDTAVYYCADVNGDWGQGTLVTVSS
notes: VHH-Fc based on IgG2 Fc
B11: IL1RL2-48 (VHH)
VHH: EVQLVESGGGLVQPGGSLRLSCAASGRTFSSYDMGWFRQAPGKERELVAAITWNSGSTLYADSVKGRFTISADNSKNTAYLQMNSLKPEDTAVYYCADVNGDWGQGTLVTVSS
notes: VHH-Fc based on IgG2 Fc
B12: IL1RL2-44 (VHH)
VHH: EVQLVESGGGLVQPGGSLRLSCAASGRSFSTYDMGWFRQAPGKERELVAAISWSGGSTYYADSVKGRFTISADNSKNTAYLQMNSLKPEDTAVYYCADVNGDWGQGTLVTVSS
notes: VHH-Fc based on IgG2 Fc
B13: IL1RL2-33 (VHH)
VHH: EVQLVESGGGLVQPGGSLRLSCAASGRSFNLYYMGWFRQAPGKEREFVASIFTDDGDSYYADSVKGRFTISADNSKNTAYLQMNSLKPEDTAVYYCAAGAGWAGTMTDYNWGQGTLVTVSS
notes: VHH-Fc based on IgG2 Fc
B14: IL1RL2-28 (VHH)
VHH: EVQLVESGGGLVQPGGSLRLSCAASGFTLNDYAMGWFRQAPGKEREWVSSINWSGSTYYADSVKGRFTISADNSKNTAYLQMNSLKPEDTAVYYCAKAYSSSWPYFDYWGQGTLVTVSS
notes: VHH-Fc based on IgG2 Fc
B15: IL1RL2-38 (VHH)
VHH: EVQLVESGGGLVQPGGSLRLSCAASGRSRYGMGWFRQAPGKEREFVAAINWNGASTYYADSVKGRFTISADNSKNTAYLQMNSLKPEDTAVYYCAVSQPLNYYTYYDARRYDWGQGTLVTVSS
notes: VHH-Fc based on IgG2 Fc
B16: IL1RL2-46 (VHH)
VHH: EVQLVESGGGLVQPGGSLRLSCAASGFTLGDYVMGWFRQAPGKEREFVATIRWGTTDTYYADSVKGRFTISADNSKNTAYLQMNSLKPEDTAVYYCQSWYYDILTGYSDYYYMDVWGQGTLVTVSS
notes: VHH-Fc based on IgG2 Fc
B17: IL1RL2-162 (antibody, V domains shown)
VH: EVQLLESGGGLVQPGGSLRLSCAASGFTFNHYGMGWVRQAPGKGLEWVSSIGANGAPTYYADSVKGRFTISRDNSKNTLYLQMNSLRAEDTAVYYCAKSYLSGTFDYWGQGTLVTVSS
VL: DIQMTQSPSSLSASVGDRVTITCQGGSPRSYYASWYQQKPGKAPKLLIYHTSRLQDGVPSRFSGSGSGTDFTLTISSLQPEDFATYYCQSYDKSNVVFGQGTKVEIK
notes: IgG2
B18: IL1RL2-45 (VHH)
VHH: EVQLVESGGGLVQPGGSLRLSCAASGFDFSVSWMGWFRQAPGKEREFVGSIDWITTNIYYADSVKGRFTISADNSKNTAYLQMNSLKPEDTAVYYCAANIEAGTTKSQGWGQGTLVTVSS
notes: VHH-Fc based on IgG2 Fc
B19: IL1RL2-53 (VHH)
VHH: EVQLVESGGGLVQPGGSLRLSCAASGSTFSPNVMGWFRQAPGKEREFVAAITWSGSSTTEYADSVKGRFTISADNSKNTAYLQMNSLKPEDTAVYYCAAANEYWVYVNPNRYTWGQGTLVTVSS
notes: VHH-Fc based on IgG2 Fc
B20: IL1RL2-26 (VHH)
VHH: EVQLVESGGGLVQPGGSLRLSCAASGSIFSIYDMGWFRQAPGKEREFVAAISGWSGGRTSYADSVKGRFTISADNSKNTAYLQMNSLKPEDTAVYYCAAIAYEEGVYRWDWGQGTLVTVSS
notes: VHH-Fc based on IgG2 Fc
B21: IL1RL2-52 (VHH)
VHH: EVQLVESGGGLVQPGGSLRLSCAASGRTSTYDMGWFRQAPGKEREFVGAISWSGGLTSYADSVKGRFTISADNSKNTAYLQMNSLKPEDTAVYYCADVNGDWGQGTLVTVSS
notes: VHH-Fc based on IgG2 Fc

The experiment addresses T1, IL1RL2 over-expressed on Expi293 cells (UniProt Q9HB29 20-575, limits assumed).
T1 construct: whole, on cells; Target of the flow cytometry assay; MFI ratio is over-expressing cells over parent cells
T1 sequence (looked up): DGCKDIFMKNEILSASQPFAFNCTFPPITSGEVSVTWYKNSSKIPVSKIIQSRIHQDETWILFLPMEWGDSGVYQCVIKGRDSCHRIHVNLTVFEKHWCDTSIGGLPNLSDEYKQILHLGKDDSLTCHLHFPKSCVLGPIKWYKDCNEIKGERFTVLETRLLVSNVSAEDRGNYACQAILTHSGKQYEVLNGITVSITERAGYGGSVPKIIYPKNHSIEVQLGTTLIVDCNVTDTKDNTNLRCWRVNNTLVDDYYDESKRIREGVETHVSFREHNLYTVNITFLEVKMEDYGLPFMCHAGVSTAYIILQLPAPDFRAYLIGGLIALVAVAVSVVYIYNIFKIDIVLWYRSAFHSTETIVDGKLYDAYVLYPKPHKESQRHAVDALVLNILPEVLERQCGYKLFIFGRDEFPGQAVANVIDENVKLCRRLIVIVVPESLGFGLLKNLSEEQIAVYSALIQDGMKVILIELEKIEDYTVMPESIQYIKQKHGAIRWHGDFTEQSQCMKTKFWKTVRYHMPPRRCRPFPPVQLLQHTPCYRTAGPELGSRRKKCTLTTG
The experiment is described as follows: flow cytometry, over-expressing Expi293 vs parent cells, 100 nM antibody.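 Further: ratio is mean fluorescence intensity on over-expressing Expi293 cells divided by that measured on parental Expi293 cells.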
Experimental: All incubations and washes were in buffer containing PBS+1% BSA. MFI Ratio is defined by the mean fluorescence intensity (MFI) of the cytokine over-expressing Expi293 cell over the Expi293 parent cell. […] EC50 was calculated in GraphPad Prism.
As to B1, the “100 nM FACS (MFI Ratio)” value was found to be 9.68. Next, B2: 3.08; B3: 151; B4: 0.69. As to B5, the “100 nM FACS (MFI Ratio)” value worked out at 14.8. Take B6: the “100 nM FACS (MFI Ratio)” value turned out to be 31. As for B7, the figure is 20.1. Next, B8: 13.2; B9: 2.47; B10: 3.83. As for B11, the figure is 7.83; as for B12, 0.95; as for B13, 15.2.

B14: the “100 nM FACS (MFI Ratio)” value is 13.6. As for B15, the figure is 7.41; as for B16, 15.6. Next, B17: 4.26; B18: 6.82. As for B19, the “100 nM FACS (MFI Ratio)” value worked out at 4.14.

As to B20, the “100 nM FACS (MFI Ratio)” value stood at 39.5. As for B21, the figure is 6.88.
